# Biological target: recombinant spider silk protein eADF4(C16)
# Assay: seeded turbidity kinetics at 340 nm; monomeric eADF4(C16) 10-40 uM with 0.5% or 30% (w/w) preformed seeds (sonicated mature fibrils of the same protein), 150 mM KPi pH 8.0, quiescent, 20-40 C; global fit with AmyloFit (secondary nucleation model)
substance,measurement,value
recombinant spider silk protein eADF4(C16),rate constant for primary nucleation kn,1e-09 M⁻¹ s⁻¹
